Positions count from the first letter of the chain named.
B1: CamIV3 (antibody, V domains shown)
VH: QVQLVQSGAEVKKPGASVKVSCKASGYTFTNYGMNWVRQAPGQRLEWMGWLNTYTGESIYPDDFKGRVTITRDTSASTAYMELSSLRSEDTAVYYCARGDYGYDDPLDYWGQGTLVTVSS
VL: DIVMTQSPLSLPVTPGEPASISCRSSKSLLHTLGNTYLHWFLQKPGQSPQLLIYRMSVLASGVPDRFSGSGSGTDFTLKISRVEAEDVGVYYCMQHLEYPLTFGQGTKLEIK
B2: 32LO0356 (antibody, V domains shown)
VH: B1 VH with I59Y
VL: B1 VL with L33N, G34F
B3: 32LO0351 (antibody, V domains shown)
VH: B1 VH with I59Y
VL: B1 VL with L33Y
B4: 32LO0350 (antibody, human IgG1, V domains shown)
VH: B1 VH with I59W
VL: B1 VL with L33N, G34R
notes: also called optimized IV.3 clone 32LO0350
B5: 32LO0354 (antibody, human IgG1, V domains shown)
VH: B1 VH with I59Y
VL: B1 VL with L33N, G34R
notes: also called optimized IV.3 clone 32LO0354
B6: 32LO0355 (antibody, human IgG1, V domains shown)
VH: B1 VH with I59W
VL: B1 VL with L33N, G34K
notes: also called optimized IV.3 clone 32LO0355

Molecular target: T1, human FcγRIIA 131H on blood cells of 131H/H donors (human, UniProt P12318 34-317)
T1 sequence (looked up): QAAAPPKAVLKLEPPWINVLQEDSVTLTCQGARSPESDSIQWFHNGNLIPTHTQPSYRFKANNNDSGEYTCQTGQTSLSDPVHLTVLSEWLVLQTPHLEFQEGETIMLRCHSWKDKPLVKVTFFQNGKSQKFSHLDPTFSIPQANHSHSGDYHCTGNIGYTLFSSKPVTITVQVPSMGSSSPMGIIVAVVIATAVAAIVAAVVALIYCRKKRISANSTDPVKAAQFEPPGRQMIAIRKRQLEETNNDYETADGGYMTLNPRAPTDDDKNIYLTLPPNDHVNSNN
Assay: cell-based or functional assay

Row | Binder | IC50 of the loss of surface FcγRIIA (M.F.I of IV.3-Alexa 647) on monocytes, whole blood, 2 h at 37 °C
1 | B1 | 0.241 nM
2 | B2 | 0.044 nM
3 | B3 | 0.0524 nM
4 | B4 | 0.0692 nM
5 | B5 | 0.0417 nM
6 | B6 | 0.0915 nM

Molecular target: T2, human FcγRIIA 131R on blood cells of 131R/R donors (human, UniProt P12318 34-317)
T2 sequence: T1 sequence (looked up) with H134R
Assay: cell-based or functional assay

Row | Binder | IC50 of the loss of surface FcγRIIA (M.F.I of IV.3-Alexa 647) on monocytes, whole blood, 2 h at 37 °C
7 | B1 | 0.307 nM
8 | B2 | 0.0431 nM
9 | B3 | 0.0559 nM
10 | B4 | 0.0537 nM
11 | B5 | 0.039 nM
12 | B6 | 0.0644 nM

Molecular target: T3, recombinant FcγRIIA-131H/H allotype (ELISA coat, generated at MedImmune) (human, UniProt P12318 34-217, limits assumed)
T3 construct: also called human FcγRIIA; CD32A
T3 sequence (looked up): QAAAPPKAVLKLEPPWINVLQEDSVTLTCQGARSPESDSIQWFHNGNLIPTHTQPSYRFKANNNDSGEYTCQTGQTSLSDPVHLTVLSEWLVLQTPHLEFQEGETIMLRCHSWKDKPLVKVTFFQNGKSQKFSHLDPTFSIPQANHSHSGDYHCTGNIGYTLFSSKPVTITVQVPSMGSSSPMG
Assay: ELISA on plate-coated FcγRIIA-131H/H (2 µg/ml), detection with goat anti-human Fc-HRP
Method: (§1) Plates were washed five times with 200 μl of wash buffer (PBS containing 0.1% Tween 20), blocked with blocking buffer containing 5% milk in PBS for 1 hour at room temperature, and washed five additional times with wash buffer. Three-fold serial dilutions of the test antibody or control antibody (R347-Tm) were added to wells in duplicate. Plates were incubated for 2 hours at room temperature, and washed five times with wash buffer. Binding of the antibodies to the FcγRs was detected by adding 50 μl of goat anti-human Fc-HRP (Jackson ImmunoResearch Laboratories, PA) to the wells and incubating for 1 hour at room temperature, washing 10 times, and adding 50 μl TMB substrate (Pierce Biotechnology, MA). The color reaction was stopped with 50 μl 0.2M […] and the absorbance was measured using a spectrophotometer (Molecular Devices, CA) at […].

Row | Binder | EC50 (read off the curve)
13 | B4 | ~5 ng/mL
14 | B5 | ~5 ng/mL
15 | B6 | ~5 ng/mL

Molecular target: T4, recombinant human FcγRIIIA-158V allotype (ELISA coat, generated at MedImmune) (human, UniProt P08637 17-208, limits assumed)
T4 construct: also called FcγRIII-158V allotype; CD16A 158V
T4 sequence (P08637 17-208 F176V limits assumed): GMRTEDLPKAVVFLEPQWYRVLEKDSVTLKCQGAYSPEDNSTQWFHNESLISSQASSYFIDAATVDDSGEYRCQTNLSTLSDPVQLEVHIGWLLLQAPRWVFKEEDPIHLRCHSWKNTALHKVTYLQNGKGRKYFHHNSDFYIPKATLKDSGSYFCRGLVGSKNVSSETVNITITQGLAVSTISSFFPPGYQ
Assay: ELISA on plate-coated FcγRIIIA-158V (2 µg/ml), detection with goat anti-human Fc-HRP
Method: as §1

Row | Binder | binding result
16 | B4 | no binding (tested: about 15000 ng/ml)
17 | B5 | no binding (tested: about 15000 ng/ml)
18 | B6 | no binding (tested: about 15000 ng/ml)

Molecular target: T5, recombinant FcγRIIB (ELISA coat, generated at MedImmune) (UniProt P31994 43-217, limits assumed)
T5 construct: also called CD32B
T5 sequence (looked up): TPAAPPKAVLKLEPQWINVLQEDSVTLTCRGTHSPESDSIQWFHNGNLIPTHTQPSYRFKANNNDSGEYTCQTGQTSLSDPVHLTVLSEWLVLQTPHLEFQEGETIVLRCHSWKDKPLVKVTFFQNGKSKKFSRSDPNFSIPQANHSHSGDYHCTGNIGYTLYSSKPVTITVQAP
Assay: ELISA on plate-coated FcγRIIB (2 µg/ml), detection with goat anti-human Fc-HRP
Method: as §1

Row | Binder | binding result
19 | B4 | no binding (tested: about 15000 ng/ml)
20 | B5 | no binding (tested: about 15000 ng/ml)
21 | B6 | no binding (tested: about 15000 ng/ml)

Molecular target: cynomolgus monkey FcγRIIA on blood cells (cynomolgus monkey)
Assay: cell-based or functional assay

Row | Binder | IC50 of the loss of surface FcγRIIA (M.F.I of IV.3-Alexa 647) on cynomolgus monocytes, whole blood, 2 h at 37 °C
22 | B1 | 10.5 nM
23 | B2 | 3.78 nM
24 | B3 | 16.4 nM
25 | B4 | 1.2 nM
26 | B5 | 5.14 nM
27 | B6 | 1.01 nM

Molecular target: T6, recombinant human FcγRI (ELISA coat, generated at MedImmune) (human, UniProt P12314 16-292, limits assumed)
T6 construct: also called CD64
T6 sequence (P12314 16-292 limits assumed): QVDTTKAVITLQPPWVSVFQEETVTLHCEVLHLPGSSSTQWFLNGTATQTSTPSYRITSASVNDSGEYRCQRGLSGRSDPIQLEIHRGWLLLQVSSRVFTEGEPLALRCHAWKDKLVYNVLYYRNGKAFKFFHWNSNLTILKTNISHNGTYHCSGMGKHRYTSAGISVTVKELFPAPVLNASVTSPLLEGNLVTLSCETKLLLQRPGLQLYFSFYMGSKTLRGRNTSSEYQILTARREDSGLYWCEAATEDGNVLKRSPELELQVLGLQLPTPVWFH
Assay: ELISA on plate-coated FcγRI (2 µg/ml), detection with goat anti-human Fc-HRP
Method: as §1

Row | Binder | binding result
28 | B4 | no binding (tested: about 15000 ng/ml)
29 | B5 | no binding (tested: about 15000 ng/ml)
30 | B6 | no binding (tested: about 15000 ng/ml)

Molecular target: T7, Human CD32A 131R extracellular domain, 6xHis_Flag tagged (human, UniProt P12318 34-217)
T7 construct: also called Hu CD32A_131Arg; human CD32A_131 Arg
T7 chain: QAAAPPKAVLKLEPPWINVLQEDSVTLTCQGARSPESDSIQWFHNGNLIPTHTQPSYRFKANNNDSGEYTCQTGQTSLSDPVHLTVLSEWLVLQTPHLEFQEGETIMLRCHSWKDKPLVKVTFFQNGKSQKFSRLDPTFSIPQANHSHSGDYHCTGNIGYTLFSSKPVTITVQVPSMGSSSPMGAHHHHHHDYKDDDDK
Assay: HTRF epitope competition: sample IgG titrated against binding of mouse IV.3 IgG to human CD32a 131R

Row | Binder | binding result
31 | B4 | binds
32 | B5 | binds
33 | B6 | binds

Molecular target: T8, recombinant human FcγRIIIA-158F allotype (ELISA coat, generated at MedImmune) (human, UniProt P08637 17-208, limits assumed)
T8 construct: also called FcγRIII-158F allotype; CD16A 158F
T8 sequence (P08637 17-208 limits assumed): as the sequence (P08637 17-208 F176V limits assumed) above, with V160F counted along it
Assay: ELISA on plate-coated FcγRIIIA-158F (2 µg/ml), detection with goat anti-human Fc-HRP
Method: as §1

Row | Binder | binding result
34 | B4 | no binding (tested: about 15000 ng/ml)
35 | B5 | no binding (tested: about 15000 ng/ml)
36 | B6 | no binding (tested: about 15000 ng/ml)
